Experimental data reported in PMC10786891, “Massively parallel profiling of RNA-targeting CRISPR-Cas13d”.

T1: EsCas13d, nuclease-dead (Eubacterium siraeum, UniProt B0MS50, R295A;H300A;R849A;H854A)
T1 sequence: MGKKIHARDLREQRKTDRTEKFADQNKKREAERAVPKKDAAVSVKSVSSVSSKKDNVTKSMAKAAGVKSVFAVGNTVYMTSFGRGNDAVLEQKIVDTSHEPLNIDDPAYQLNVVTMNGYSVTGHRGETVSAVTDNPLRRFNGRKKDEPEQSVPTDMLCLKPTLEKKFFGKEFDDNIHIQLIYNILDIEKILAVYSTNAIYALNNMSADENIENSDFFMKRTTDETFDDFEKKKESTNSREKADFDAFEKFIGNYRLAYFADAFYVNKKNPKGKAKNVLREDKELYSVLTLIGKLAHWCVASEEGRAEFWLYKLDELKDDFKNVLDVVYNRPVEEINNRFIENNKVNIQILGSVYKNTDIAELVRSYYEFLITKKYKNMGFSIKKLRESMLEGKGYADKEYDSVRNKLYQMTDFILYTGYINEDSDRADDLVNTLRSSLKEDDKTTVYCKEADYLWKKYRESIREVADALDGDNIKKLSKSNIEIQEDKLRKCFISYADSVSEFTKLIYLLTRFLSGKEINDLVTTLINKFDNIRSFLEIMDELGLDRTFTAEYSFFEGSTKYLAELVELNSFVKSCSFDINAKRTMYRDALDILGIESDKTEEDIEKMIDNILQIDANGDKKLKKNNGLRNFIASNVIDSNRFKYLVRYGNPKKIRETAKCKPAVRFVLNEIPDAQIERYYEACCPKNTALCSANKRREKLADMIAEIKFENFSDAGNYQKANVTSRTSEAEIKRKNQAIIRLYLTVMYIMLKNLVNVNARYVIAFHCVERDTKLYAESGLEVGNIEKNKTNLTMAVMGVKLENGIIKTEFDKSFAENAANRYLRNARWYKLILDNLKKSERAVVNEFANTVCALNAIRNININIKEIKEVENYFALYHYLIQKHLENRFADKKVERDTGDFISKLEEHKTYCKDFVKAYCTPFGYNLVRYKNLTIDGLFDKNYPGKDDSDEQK


biological target: T1, EsCas13d, nuclease-dead; assay: crRNA (strand 1, pre-loaded); Mg2+; 40 mM Tris-HCl pH 7.5, 150 mM NaCl, 6 mM MgCl2, 1 mM DTT, 0.1% Tween-20, 0.2 mg/ml BSA; 25 C; 10 min per concentration, then washed; conditions: tags: His6-TwinStrep-SUMO cleaved; N-terminal SNAP kept (SNAP-Surface 488); label: 3' end held by stalled T7 RNA polymerase

| Binder | Kd |
| --- | --- |
| target 1 MT 5'PFS CAG 3'PFS CCC (mixed) RNA 1: CACCCGUGCAAAAAUGCAGGGGUCUAAAACUGAGCGGAUAACCUCUCUAUGG RNA 2: GGGAAUGGAUCCACAUCUACGAAUUCCAGCCAUAGAGAGGUUAUCCGCUCACCCAGAUCGGAAGAGCACACGU | ~49 nM |
| target 1 A9U,C21U (mixed) RNA 1: CACCCGUGCAAAAAUGCAGGGGUCUAAAACUGAGCGGAUAACCUCUCUAUGG RNA 2: GGGAAUGGAUCCACAUCUACGAAUUCGUACUAUAGAGAGGUUUUCCGCUCACCGAGAUCGGAAGAGCACACGU | 8.7 ± 0.8 nM |
| target 1 MT 5'PFS GCA 3'PFS AAG (mixed) RNA 1: CACCCGUGCAAAAAUGCAGGGGUCUAAAACUGAGCGGAUAACCUCUCUAUGG RNA 2: GGGAAUGGAUCCACAUCUACGAAUUCGCACCAUAGAGAGGUUAUCCGCUCAAAGAGAUCGGAAGAGCACACGU | 32.5 ± 8 nM |
| target 1 MT 5'PFS GCC 3'PFS AUA (mixed) RNA 1: CACCCGUGCAAAAAUGCAGGGGUCUAAAACUGAGCGGAUAACCUCUCUAUGG RNA 2: GGGAAUGGAUCCACAUCUACGAAUUCGCCCCAUAGAGAGGUUAUCCGCUCAAUAAGAUCGGAAGAGCACACGU | 13.8 ± 2.4 nM |
| target 1 MT 5'PFS ACA 3'PFS CUA (mixed) RNA 1: CACCCGUGCAAAAAUGCAGGGGUCUAAAACUGAGCGGAUAACCUCUCUAUGG RNA 2: GGGAAUGGAUCCACAUCUACGAAUUCACACCAUAGAGAGGUUAUCCGCUCACUAAGAUCGGAAGAGCACACGU | 12.7 ± 3.5 nM |
| target 1 A1C,G17C (mixed) RNA 1: CACCCGUGCAAAAAUGCAGGGGUCUAAAACUGAGCGGAUAACCUCUCUAUGG RNA 2: GGGAAUGGAUCCACAUCUACGAAUUCGUACCAUACAGAGGUUAUCCGCUCCCCGAGAUCGGAAGAGCACACGU | 54 ± 15 nM |
| target 1 MT 5'PFS GCA 3'PFS AAU (mixed) RNA 1: CACCCGUGCAAAAAUGCAGGGGUCUAAAACUGAGCGGAUAACCUCUCUAUGG RNA 2: GGGAAUGGAUCCACAUCUACGAAUUCGCACCAUAGAGAGGUUAUCCGCUCAAAUAGAUCGGAAGAGCACACGU | 41.5 ± 10 nM |
| target 1 MT 5'PFS GUA 3'PFS GCC (mixed) RNA 1: CACCCGUGCAAAAAUGCAGGGGUCUAAAACUGAGCGGAUAACCUCUCUAUGG RNA 2: GGGAAUGGAUCCACAUCUACGAAUUCGUACCAUAGAGAGGUUAUCCGCUCAGCCAGAUCGGAAGAGCACACGU | 8.5 ± 1 nM |
| target 1 MT 5'PFS GGC 3'PFS UGC (mixed) RNA 1: CACCCGUGCAAAAAUGCAGGGGUCUAAAACUGAGCGGAUAACCUCUCUAUGG RNA 2: GGGAAUGGAUCCACAUCUACGAAUUCGGCCCAUAGAGAGGUUAUCCGCUCAUGCAGAUCGGAAGAGCACACGU | 8.6 ± 1.35 nM |
| target 1 MT 5'PFS AAG 3'PFS CAU (mixed) RNA 1: CACCCGUGCAAAAAUGCAGGGGUCUAAAACUGAGCGGAUAACCUCUCUAUGG RNA 2: GGGAAUGGAUCCACAUCUACGAAUUCAAGCCAUAGAGAGGUUAUCCGCUCACAUAGAUCGGAAGAGCACACGU | 23 ± 10.5 nM |
| target 1 MT 5'PFS GUA 3'PFS GCU (mixed) RNA 1: CACCCGUGCAAAAAUGCAGGGGUCUAAAACUGAGCGGAUAACCUCUCUAUGG RNA 2: GGGAAUGGAUCCACAUCUACGAAUUCGUACCAUAGAGAGGUUAUCCGCUCAGCUAGAUCGGAAGAGCACACGU | 4.18 ± 0.37 nM |
| target 1 MT 5'PFS CCU 3'PFS UCU (mixed) RNA 1: CACCCGUGCAAAAAUGCAGGGGUCUAAAACUGAGCGGAUAACCUCUCUAUGG RNA 2: GGGAAUGGAUCCACAUCUACGAAUUCCCUCCAUAGAGAGGUUAUCCGCUCAUCUAGAUCGGAAGAGCACACGU | 14.4 ± 3.1 nM |
| target 1 MT 5'PFS GCC 3'PFS AUG (mixed) RNA 1: CACCCGUGCAAAAAUGCAGGGGUCUAAAACUGAGCGGAUAACCUCUCUAUGG RNA 2: GGGAAUGGAUCCACAUCUACGAAUUCGCCCCAUAGAGAGGUUAUCCGCUCAAUGAGAUCGGAAGAGCACACGU | 16.5 ± 6 nM |
| target 1 MT 5'PFS CUA 3'PFS UCC (mixed) RNA 1: CACCCGUGCAAAAAUGCAGGGGUCUAAAACUGAGCGGAUAACCUCUCUAUGG RNA 2: GGGAAUGGAUCCACAUCUACGAAUUCCUACCAUAGAGAGGUUAUCCGCUCAUCCAGAUCGGAAGAGCACACGU | 16.2 ± 4.8 nM |
| target 1 MT 5'PFS GUA 3'PFS GCG (mixed) RNA 1: CACCCGUGCAAAAAUGCAGGGGUCUAAAACUGAGCGGAUAACCUCUCUAUGG RNA 2: GGGAAUGGAUCCACAUCUACGAAUUCGUACCAUAGAGAGGUUAUCCGCUCAGCGAGAUCGGAAGAGCACACGU | 7.29 ± 0.49 nM |
| target 1 MT 5'PFS CUA 3'PFS UCG (mixed) RNA 1: CACCCGUGCAAAAAUGCAGGGGUCUAAAACUGAGCGGAUAACCUCUCUAUGG RNA 2: GGGAAUGGAUCCACAUCUACGAAUUCCUACCAUAGAGAGGUUAUCCGCUCAUCGAGAUCGGAAGAGCACACGU | 6 ± 0.95 nM |
| target 1 MT 5'PFS CUA 3'PFS CCG (mixed) RNA 1: CACCCGUGCAAAAAUGCAGGGGUCUAAAACUGAGCGGAUAACCUCUCUAUGG RNA 2: GGGAAUGGAUCCACAUCUACGAAUUCCUACCAUAGAGAGGUUAUCCGCUCACCGAGAUCGGAAGAGCACACGU | 5.05 ± 1.7 nM |
| target 1 MT 5'PFS AAG 3'PFS CAA (mixed) RNA 1: CACCCGUGCAAAAAUGCAGGGGUCUAAAACUGAGCGGAUAACCUCUCUAUGG RNA 2: GGGAAUGGAUCCACAUCUACGAAUUCAAGCCAUAGAGAGGUUAUCCGCUCACAAAGAUCGGAAGAGCACACGU | 59 ± 29.5 nM |
| target 1 MT 5'PFS GCC 3'PFS AUC (mixed) RNA 1: CACCCGUGCAAAAAUGCAGGGGUCUAAAACUGAGCGGAUAACCUCUCUAUGG RNA 2: GGGAAUGGAUCCACAUCUACGAAUUCGCCCCAUAGAGAGGUUAUCCGCUCAAUCAGAUCGGAAGAGCACACGU | 32 ± 11 nM |
| target 1 MT 5'PFS CAU 3'PFS CCG (mixed) RNA 1: CACCCGUGCAAAAAUGCAGGGGUCUAAAACUGAGCGGAUAACCUCUCUAUGG RNA 2: GGGAAUGGAUCCACAUCUACGAAUUCCAUCCAUAGAGAGGUUAUCCGCUCACCGAGAUCGGAAGAGCACACGU | 23 ± 8.5 nM |
| target 1 MT 5'PFS GUA 3'PFS GUA (mixed) RNA 1: CACCCGUGCAAAAAUGCAGGGGUCUAAAACUGAGCGGAUAACCUCUCUAUGG RNA 2: GGGAAUGGAUCCACAUCUACGAAUUCGUACCAUAGAGAGGUUAUCCGCUCAGUAAGAUCGGAAGAGCACACGU | 12.1 ± 1.5 nM |
| target 1 MT 5'PFS GCA 3'PFS AAA (mixed) RNA 1: CACCCGUGCAAAAAUGCAGGGGUCUAAAACUGAGCGGAUAACCUCUCUAUGG RNA 2: GGGAAUGGAUCCACAUCUACGAAUUCGCACCAUAGAGAGGUUAUCCGCUCAAAAAGAUCGGAAGAGCACACGU | 31.5 ± 7.5 nM |
| target 1 insA 3' of 17,insA 3' of 6 (mixed) RNA 1: CACCCGUGCAAAAAUGCAGGGGUCUAAAACUGAGCGGAUAACCUCUCUAUGG RNA 2: GGGAAUGGAUCCACAUCUACGAAUUCGUACCAUAGAAGAGGUUAUCCAGCUCACCGAGAUCGGAAGAGCACACGU | 18.3 ± 1.4 nM |
| target 1 MT 5'PFS GUA 3'PFS GCA (mixed) RNA 1: CACCCGUGCAAAAAUGCAGGGGUCUAAAACUGAGCGGAUAACCUCUCUAUGG RNA 2: GGGAAUGGAUCCACAUCUACGAAUUCGUACCAUAGAGAGGUUAUCCGCUCAGCAAGAUCGGAAGAGCACACGU | 13.8 ± 1.4 nM |
| target 1 MT 5'PFS GCC 3'PFS AUU (mixed) RNA 1: CACCCGUGCAAAAAUGCAGGGGUCUAAAACUGAGCGGAUAACCUCUCUAUGG RNA 2: GGGAAUGGAUCCACAUCUACGAAUUCGCCCCAUAGAGAGGUUAUCCGCUCAAUUAGAUCGGAAGAGCACACGU | 16.9 ± 4.1 nM |
| target 1 MT 5'PFS AAG 3'PFS CAG (mixed) RNA 1: CACCCGUGCAAAAAUGCAGGGGUCUAAAACUGAGCGGAUAACCUCUCUAUGG RNA 2: GGGAAUGGAUCCACAUCUACGAAUUCAAGCCAUAGAGAGGUUAUCCGCUCACAGAGAUCGGAAGAGCACACGU | ~37.5 nM |
| target 1 MT 5'PFS GCA 3'PFS AAC (mixed) RNA 1: CACCCGUGCAAAAAUGCAGGGGUCUAAAACUGAGCGGAUAACCUCUCUAUGG RNA 2: GGGAAUGGAUCCACAUCUACGAAUUCGCACCAUAGAGAGGUUAUCCGCUCAAACAGAUCGGAAGAGCACACGU | 24 ± 6 nM |
| target 1 MT 5'PFS AAG 3'PFS CAC (mixed) RNA 1: CACCCGUGCAAAAAUGCAGGGGUCUAAAACUGAGCGGAUAACCUCUCUAUGG RNA 2: GGGAAUGGAUCCACAUCUACGAAUUCAAGCCAUAGAGAGGUUAUCCGCUCACACAGAUCGGAAGAGCACACGU | ~50.5 nM |
